Data reported in patent US20170022281A1 (AbbVie / Abbott, published 2017).
Changes are numbered by the printed parent chain.

T1: murine PRLR (Biacore antigen) (murine, UniProt Q08501 20-229, limits assumed)
T1 construct: also called muPRLR
T1 sequence (looked up): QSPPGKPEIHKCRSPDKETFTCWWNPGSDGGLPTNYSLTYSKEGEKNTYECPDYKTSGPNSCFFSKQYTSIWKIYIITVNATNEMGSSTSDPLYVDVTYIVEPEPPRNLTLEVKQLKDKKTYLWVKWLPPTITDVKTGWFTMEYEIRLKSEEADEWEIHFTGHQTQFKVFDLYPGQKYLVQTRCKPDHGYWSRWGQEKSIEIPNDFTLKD

T2: human PRLR (Biacore antigen) (human, UniProt P16471 25-234, limits assumed)
T2 construct: The construct injected over captured antibody is not described (a soluble form is likely); also called huPRLR
T2 sequence: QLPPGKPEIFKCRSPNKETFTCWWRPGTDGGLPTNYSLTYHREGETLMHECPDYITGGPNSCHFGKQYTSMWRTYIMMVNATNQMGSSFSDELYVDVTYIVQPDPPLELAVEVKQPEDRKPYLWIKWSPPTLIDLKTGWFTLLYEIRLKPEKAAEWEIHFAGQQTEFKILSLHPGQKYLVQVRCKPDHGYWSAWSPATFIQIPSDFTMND

T3: cyno PRLR (Biacore antigen) (cyno, UniProt A0A2K5WXK1 25-234)
T3 construct: also called cyPRLR
T3 sequence: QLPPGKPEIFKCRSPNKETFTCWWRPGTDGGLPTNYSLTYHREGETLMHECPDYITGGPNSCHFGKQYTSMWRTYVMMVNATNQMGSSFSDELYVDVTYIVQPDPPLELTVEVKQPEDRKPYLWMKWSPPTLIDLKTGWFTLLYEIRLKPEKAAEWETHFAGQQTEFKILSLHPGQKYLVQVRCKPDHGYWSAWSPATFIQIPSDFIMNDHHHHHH

T4: mouse PRLR on Baf3-mPRLR cells (mouse, UniProt Q08501 20-608)
T4 sequence (looked up): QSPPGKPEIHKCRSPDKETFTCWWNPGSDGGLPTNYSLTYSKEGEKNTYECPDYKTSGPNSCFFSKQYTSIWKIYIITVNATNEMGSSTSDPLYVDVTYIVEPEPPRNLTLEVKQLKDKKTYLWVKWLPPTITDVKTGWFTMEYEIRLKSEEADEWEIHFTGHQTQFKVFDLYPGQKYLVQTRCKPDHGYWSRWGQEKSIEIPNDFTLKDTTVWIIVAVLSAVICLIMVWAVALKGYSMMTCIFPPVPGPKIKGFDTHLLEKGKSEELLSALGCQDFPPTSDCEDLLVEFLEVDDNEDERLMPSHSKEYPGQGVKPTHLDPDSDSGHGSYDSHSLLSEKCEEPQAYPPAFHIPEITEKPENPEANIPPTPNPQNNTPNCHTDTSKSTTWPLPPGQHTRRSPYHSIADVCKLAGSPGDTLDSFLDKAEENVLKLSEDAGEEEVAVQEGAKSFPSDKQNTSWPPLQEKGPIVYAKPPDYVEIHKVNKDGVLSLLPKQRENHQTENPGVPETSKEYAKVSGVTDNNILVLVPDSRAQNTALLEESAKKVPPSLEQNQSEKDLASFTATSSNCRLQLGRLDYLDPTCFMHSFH

T5: human PRLR on cells (human, UniProt P16471 25-622)
T5 sequence: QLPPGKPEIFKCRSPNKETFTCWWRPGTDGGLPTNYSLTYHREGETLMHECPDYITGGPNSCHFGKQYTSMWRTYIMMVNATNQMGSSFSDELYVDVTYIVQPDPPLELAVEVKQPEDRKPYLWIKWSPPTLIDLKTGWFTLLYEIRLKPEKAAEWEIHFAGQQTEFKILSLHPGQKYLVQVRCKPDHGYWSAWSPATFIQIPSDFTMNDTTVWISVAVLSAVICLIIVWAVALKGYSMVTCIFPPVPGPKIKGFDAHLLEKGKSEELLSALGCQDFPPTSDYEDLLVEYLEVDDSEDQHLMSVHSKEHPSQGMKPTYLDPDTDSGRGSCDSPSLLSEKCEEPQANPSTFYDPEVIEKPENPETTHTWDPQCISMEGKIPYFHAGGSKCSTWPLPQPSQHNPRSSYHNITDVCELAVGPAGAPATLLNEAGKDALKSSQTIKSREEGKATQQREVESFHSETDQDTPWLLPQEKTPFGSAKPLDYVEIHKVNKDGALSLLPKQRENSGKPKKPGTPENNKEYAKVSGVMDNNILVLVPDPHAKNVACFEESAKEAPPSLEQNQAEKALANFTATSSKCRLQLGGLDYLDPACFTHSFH

T6: cyno PRLR ECD-his6 protein (cyno)
T6 chain: T3 sequence

T7: human PRLR ECD-Fc fusion protein (human, UniProt P16471 25-233)
T7 construct: not shown: Fc region (captured by goat anti-human Fc)
T7 sequence: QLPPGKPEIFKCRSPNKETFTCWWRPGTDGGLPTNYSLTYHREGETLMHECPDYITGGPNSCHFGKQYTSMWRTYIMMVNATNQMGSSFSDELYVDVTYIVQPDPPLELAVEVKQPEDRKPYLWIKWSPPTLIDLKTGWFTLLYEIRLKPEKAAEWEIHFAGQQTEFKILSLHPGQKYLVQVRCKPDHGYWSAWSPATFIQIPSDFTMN

T8: rat PRLR on Nb2-11 rat lymphoma cells (rat, UniProt P05710 20-610)
T8 sequence (looked up): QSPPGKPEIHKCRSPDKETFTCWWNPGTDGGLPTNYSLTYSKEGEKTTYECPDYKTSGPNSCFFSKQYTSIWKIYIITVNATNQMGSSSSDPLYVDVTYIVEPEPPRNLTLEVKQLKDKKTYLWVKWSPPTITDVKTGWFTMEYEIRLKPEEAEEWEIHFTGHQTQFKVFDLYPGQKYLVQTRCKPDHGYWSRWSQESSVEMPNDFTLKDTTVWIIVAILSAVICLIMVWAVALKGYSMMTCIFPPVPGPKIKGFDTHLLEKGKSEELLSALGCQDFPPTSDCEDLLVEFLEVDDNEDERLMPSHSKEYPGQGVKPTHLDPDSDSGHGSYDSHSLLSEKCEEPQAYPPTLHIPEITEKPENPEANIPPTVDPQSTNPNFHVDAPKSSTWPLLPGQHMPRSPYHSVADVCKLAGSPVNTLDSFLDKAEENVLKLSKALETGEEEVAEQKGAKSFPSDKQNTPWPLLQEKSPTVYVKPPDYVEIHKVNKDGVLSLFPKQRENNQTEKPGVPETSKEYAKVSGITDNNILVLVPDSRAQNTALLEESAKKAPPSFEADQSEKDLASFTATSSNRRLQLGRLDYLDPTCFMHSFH

B1: Ab36 (antibody, human IgG1, kappa, V domains shown)
VH: EVQLVQSGAEVKKPGSSVKVSCKASGYTFTSYWIHWVRQAPGQGLEWMGEIDPSDSYTNYNQKFKGRVTITADKSTSTAYMELSSLRSEDTAVYYCARSFFTNWFAYWGQGTLVTVSS
VL: DVVMTQTPLSLSVTPGQPASISCRSSQSLVHSNGNTYLHWYLQKPGQSPQLLIYKVSNRFSGVPDRFSGSGSGTDFTLKISRVEAEDVGVYFCSQSTHVPFTFGGGTKVEIKR
notes: humanized from Ab7; G1; also called Ab4 HC.1 and Ab4 LC.1a
B2: Ab54 (antibody, human IgG1, kappa, V domains shown)
VH: B1 VH with M48I, V68A, I70L, A72V, T76S, A97G
VL: B1 VL
notes: humanized from Ab7 (back mutations on Ab39); G1; also called Ab4 HC.1a.3 and Ab4 LC.1a
B3: Ab55 (antibody, human IgG1, kappa, V domains shown)
VH: B1 VH with M48I, V68A, I70L, A72V, K74R, T76S, A97G
VL: B1 VL
notes: humanized from Ab7 (back mutations on Ab39); G1; also called Ab4 HC.1a.2 and Ab4 LC.1a
B4: Ab9 (antibody, V domains shown)
VH: EVQLQQSGPELVRPGASVKISCKASGYSFTDYNMHWVKQSHGKSLEWIGYIYPYNGGAGYNQKFKSKATMNVGISSSTAYMELRSLTSEDSAVYYCARGDGNYVGDMDYWGQGTSVTVSS
VL: DIQMTQSPASLSASVGETVTITCRASENIYSYLAWYQQKQGKSPQLLVYNAKTLAEGVPSRFSGSGSGTQFSLKINSLQPEDFGSYYCQHHSGTPFTFGSGTKLEIK
notes: murine monoclonal, isotype G2b; also called murine Ab9

What was measured:
[1] = molecular target: T1, murine PRLR (Biacore antigen); assay: SPR Biacore
Summary of the method: (§1)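 Association rate, dissociation rate and dissociation constant were measured by surface plasmon resonance on a Biacore instrument. PRLR antigen was tested at 600 nM, 66.67 nM and 7.41 nM, a 3-point, 9-fold dilution series. Constants came from a 1:1 binding model fit (local Rmax, mass-transport term included) in Biacore T200 Evaluation Software.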

[2] = molecular target: T2, human PRLR (Biacore antigen); assay: SPR Biacore
Summary of the method: as §1

[3] = molecular target: T3, cyno PRLR (Biacore antigen); assay: SPR Biacore
Summary of the method: as §1

[4] = molecular target: cyno PRLR on Baf3-cyPRLR cells (cyno); assay: cell-based or functional assay
[5] = molecular target: T4, mouse PRLR on Baf3-mPRLR cells; assay: cell-based or functional assay
human PRLR on cells [6] = molecular target: T5, human PRLR on cells; assay: cell-based or functional assay
[7] = molecular target: T2, human PRLR (Biacore antigen); assay: SPR Biacore; remark: listed apart in the source
[8] = molecular target: T6, cyno PRLR ECD-his6 protein; assay: ELISA on ECD
Summary of the method: (§2)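 EC50 values derive from fitted binding curves of antibody serial dilutions (1 h) on captured PRLR. Detection used an HRP-conjugated secondary (1 h), TMB development for 3–5 min, an H₂SO₄ stop and a 450 nm read, with all steps in Tween/PBS pH 7.4 buffer.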

[9] = molecular target: T7, human PRLR ECD-Fc fusion protein; assay: ELISA on ECD
Summary of the method: as §2

[10] = molecular target: T4, mouse PRLR on Baf3-mPRLR cells; assay: FACS Baf3-mPRLR 10 ug/mL
Description: (§3) Nb2-11 and Baf3-xPRLR cells were resuspended in FACS buffer (PBS+1% FBS) at 2 millions cells/mL. Cells were added to round bottom 96-well plate (100 uL/well) and treated with testing PRLR antibodies for 1 hr at 4 C. Cells were then washed with FACS buffer twice and incubated with 2nd antibody conjugated to ALEXA488 (Invitrogen) for 1 hr at 4 C. After two washes in FACS buffer, cells were resuspended in 1% formaldehyde in PBS. Cells were analyzed using LSRII flowcytometer.

[11] = molecular target: T8, rat PRLR on Nb2-11 rat lymphoma cells; assay: cell-based or functional assay
human PRLR on cells [12] = molecular target: T5, human PRLR on cells; assay: FACS T47D 10 ug/mL
[13] = molecular target: T8, rat PRLR on Nb2-11 rat lymphoma cells; assay: FACS Nb2-11 20 ug/mL
Description: as §3

Row | Binder | Kd [1] [nM] | koff [1] [s⁻¹] | kon [1] [M⁻¹ s⁻¹] | Kd [2] [nM] | koff [2] [s⁻¹] | kon [2] [M⁻¹ s⁻¹] | Kd [3] [nM] | koff [3] [s⁻¹] | kon [3] [M⁻¹ s⁻¹] | Baf3-cyPRLR proliferation IC50 [4] [µg/mL] | Baf3-mPRLR proliferation IC50 [5] [µg/mL] | Baf3-hPRLR proliferation IC50 (human PRLR on cells [6]) [µg/mL] | EC50 [9] [nM] | fold weaker affinity than chAb7 [7] [fold] | other results
1 | B1 | 1140 | 0.0568 | 49800 | 8.13 | 0.00128 | 157000 | 8.51 | 0.00114 | 133000 | 0.41 | > 30 | 0.28 | 0.556 | – | fold decrease in affinity against chAb7 [7]: ~45 fold; EC50 [8]: 0.538 nM
2 | B2 | 170 | 0.007 | 41000 | 1 | 0.00014 | 140000 | 0.85 | 0.00012 | 140000 | – | – | 0.77 | – | ~5 | –
3 | B3 | 140 | 0.0063 | 44000 | 0.67 | 0.00012 | 170000 | 0.59 | 9.8e-05 | 170000 | – | – | 0.92 | – | ~4 | –
4 | B4 | – | – | – | 0.226 | 0.000131 | 577000 | – | – | – | 6.4 | > 30 | 0.51 | 0.072 | – | FACS GeoMean-neg [10]: 1; Nb2-11 proliferation IC50 [11]: > 30 µg/mL; T47D pPRLR ELISA IC50 (human PRLR on cells [6]): 0.072 µg/mL; FACS GeoMean-neg (human PRLR on cells [12]): 1870; FACS GeoMean-neg [13]: 0
